Experimental data taken from patent publication US20070249813A1.

Assays:
[1] = target: recombinant human TNFα (human) (UniProt P01375); test: cell-based or functional assay
[2] = target: biotinylated recombinant human TNFα (human) (UniProt P01375); test: SPR (BIAcore), [Ab] 3 nM over immobilized biotinylated rhTNFα
[3] = target: biotinylated recombinant human TNFα (human) (UniProt P01375); test: SPR (BIAcore), [Ab] 6 nM over immobilized biotinylated rhTNFα
[4] = target: biotinylated recombinant human TNFα (human) (UniProt P01375); test: SPR (BIAcore), [Ab] 13 nM over immobilized biotinylated rhTNFα
[5] = target: biotinylated recombinant human TNFα (human) (UniProt P01375); test: SPR (BIAcore), [Ab] 25 nM over immobilized biotinylated rhTNFα
[6] = target: biotinylated recombinant human TNFα (human) (UniProt P01375); test: SPR (BIAcore), [Ab] 50 nM over immobilized biotinylated rhTNFα
[7] = target: biotinylated recombinant human TNFα (human) (UniProt P01375); test: SPR (BIAcore), [Ab] 100 nM over immobilized biotinylated rhTNFα
[8] = target: biotinylated recombinant human TNFα (human) (UniProt P01375); test: SPR (BIAcore), [Ab] 200 nM over immobilized biotinylated rhTNFα
[9] = target: biotinylated recombinant human TNFα (human) (UniProt P01375); test: SPR (BIAcore), [Ab] 400 nM over immobilized biotinylated rhTNFα
[10] = target: biotinylated recombinant human TNFα (human) (UniProt P01375); test: summary table of binding properties for hTNFα (assay not named there)

Chain of biotinylated recombinant human TNFα (human) (P01375 77-233 limits assumed): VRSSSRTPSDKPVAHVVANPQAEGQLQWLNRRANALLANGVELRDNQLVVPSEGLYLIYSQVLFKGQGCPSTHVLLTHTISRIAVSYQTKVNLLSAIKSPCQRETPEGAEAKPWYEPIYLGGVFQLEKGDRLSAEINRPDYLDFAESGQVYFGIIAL
Chain of recombinant human TNFα (human) (P01375 77-233 limits assumed): as above

Ab, bound, RUs [2]: 231 RU
Ab, bound, RUs [3]: 433 RU
Ab, bound, RUs [4]: 708 RU
Ab, bound, RUs [5]: 957 RU
Ab, bound, RUs [6]: 1110 RU
Ab, bound, RUs [7]: 1140 RU
Ab, bound, RUs [8]: 1080 RU
Ab, bound, RUs [9]: 881 RU
Kd [10]: 0.46 nM
Stoichiometry [10]: 1.4
Substance: MAK 195 F(ab′)2 fragment (antibody)
IC50, neutralization of TNFα-induced L929 cytotoxicity [1]: 0.062 nM
